In publication PMC8575264:
Where two headings read alike, the source gives them in different places.

How the values were obtained:
Assay in all cases: fluorescence anisotropy
Zn(II)-CPSF30-F2F3 = Zn(II)-CPSF30-F2F3 (UniProt O19137)
holo-CPSF30-FL [1] = target: T1, holo-CPSF30-FL (Bos taurus, UniProt O19137 1-243)
holo-CPSF30-5F [2] = target: T2, holo-CPSF30-5F (UniProt O19137 35-169)
Zn(II)-CPSF30-ZK = target: T3, Zn(II)-CPSF30-ZK (UniProt O19137)
T3 chain: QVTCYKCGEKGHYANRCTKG

holo-CPSF30-FL [3] = target: T1, holo-CPSF30-FL; remark: listed apart in the source
holo-CPSF30-FL [4] = target: T1, holo-CPSF30-FL; remark: listed apart in the source
holo-CPSF30-FL [5] = target: T1, holo-CPSF30-FL; remark: listed apart in the source
holo-CPSF30-5F [6] = target: T2, holo-CPSF30-5F; remark: listed apart in the source

AAUAAUAAUAAUAAUAAUAAUAAU (ssRNA) [AAU24]: no binding (Zn(II)-CPSF30-F2F3).

For CACUUUAAUCCUCCAAAUCAUGCU (ssRNA) [ΔA1,2,4,5], the “apparent K (half saturation)” value (holo-CPSF30-FL [1]) was 275 nM and the binding result (holo-CPSF30-5F [2]) was “no binding”.

UUUUUUUUUUUUUUUUUUUUUUUU (ssRNA) [PolyU24]: no binding (holo-CPSF30-5F [2]); no binding (Zn(II)-CPSF30-ZK).

For CACUUUAAUAAUAAAAAUCAUGCU (ssRNA) [α-syn24], the “apparent K (half saturation)” value (holo-CPSF30-FL [3]) was 110 nM and the binding result (Zn(II)-CPSF30-F2F3) was “no binding”.

CACUUUAAUCCCCCCAAUCAUGCU (ssRNA) [PolyC24]: no binding (holo-CPSF30-FL [4]).

UUUAUUUAUUU (ssRNA) [ARE11]: no binding (Zn(II)-CPSF30-F2F3); no binding (Zn(II)-CPSF30-ZK).

AAUAAUAAUAAU (ssRNA) [AAU12]: no binding (Zn(II)-CPSF30-F2F3).

With UCUCACUUUAAUAAUAAAAAUCAUGCUUAU (ssRNA) [α-syn30] the “apparent K (half saturation)” value (holo-CPSF30-FL [5]) was 110 nM, the “apparent K (half saturation)” value (holo-CPSF30-5F [6]) was 178 nM and the binding result (Zn(II)-CPSF30-F2F3) was “no binding”.

AAUAAUAAU (ssRNA) [AAU9]: no binding (Zn(II)-CPSF30-F2F3).
